Laboratory results from paper doi:10.1101/2024.09.22.614354 (bioRxiv, 2024).

Key:
Test in all cases: fluorescence polarisation
Rb^P I703F = target: T1, Rb^P I703F (human, UniProt P06400 380-788, I703F)
T1 sequence: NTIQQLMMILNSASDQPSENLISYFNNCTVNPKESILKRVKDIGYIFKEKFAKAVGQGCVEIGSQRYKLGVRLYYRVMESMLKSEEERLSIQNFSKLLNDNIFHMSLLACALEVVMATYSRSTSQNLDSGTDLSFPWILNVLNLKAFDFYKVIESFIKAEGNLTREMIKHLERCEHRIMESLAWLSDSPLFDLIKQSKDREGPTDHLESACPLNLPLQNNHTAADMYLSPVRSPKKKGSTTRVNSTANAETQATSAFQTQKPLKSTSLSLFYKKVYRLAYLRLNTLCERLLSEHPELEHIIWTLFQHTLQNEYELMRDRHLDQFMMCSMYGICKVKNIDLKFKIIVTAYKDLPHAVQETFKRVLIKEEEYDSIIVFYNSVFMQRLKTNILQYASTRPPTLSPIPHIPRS

Rb^P R656Q = target: T2, Rb^P R656Q (human, UniProt P06400 380-788, R656Q)
T2 sequence: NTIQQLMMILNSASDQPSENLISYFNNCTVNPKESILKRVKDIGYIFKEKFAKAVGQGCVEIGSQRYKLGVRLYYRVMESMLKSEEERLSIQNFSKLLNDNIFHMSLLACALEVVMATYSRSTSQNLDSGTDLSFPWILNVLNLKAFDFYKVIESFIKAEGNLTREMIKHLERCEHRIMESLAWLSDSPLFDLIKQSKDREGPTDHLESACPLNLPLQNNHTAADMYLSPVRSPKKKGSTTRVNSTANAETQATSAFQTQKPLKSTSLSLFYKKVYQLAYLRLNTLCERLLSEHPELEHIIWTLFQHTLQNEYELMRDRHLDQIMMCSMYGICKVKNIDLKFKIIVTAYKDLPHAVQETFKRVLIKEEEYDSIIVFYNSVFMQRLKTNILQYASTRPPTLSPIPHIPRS

Rb^P R741C = target: T3, Rb^P R741C (human, UniProt P06400 380-788, R741C)
T3 sequence: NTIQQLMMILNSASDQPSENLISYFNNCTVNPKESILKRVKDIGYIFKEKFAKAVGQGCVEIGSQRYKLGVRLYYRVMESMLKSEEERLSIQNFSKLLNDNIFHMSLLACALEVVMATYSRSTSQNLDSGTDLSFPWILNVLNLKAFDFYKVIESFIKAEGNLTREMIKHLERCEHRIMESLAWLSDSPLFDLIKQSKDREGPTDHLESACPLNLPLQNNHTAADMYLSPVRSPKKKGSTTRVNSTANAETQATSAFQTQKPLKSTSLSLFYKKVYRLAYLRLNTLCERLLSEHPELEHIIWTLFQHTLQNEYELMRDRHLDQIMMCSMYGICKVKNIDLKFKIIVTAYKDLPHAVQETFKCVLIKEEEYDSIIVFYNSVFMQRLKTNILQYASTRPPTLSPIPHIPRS

Rb^P H555Y = target: T4, Rb^P H555Y (human, UniProt P06400 380-788, H555Y)
T4 sequence: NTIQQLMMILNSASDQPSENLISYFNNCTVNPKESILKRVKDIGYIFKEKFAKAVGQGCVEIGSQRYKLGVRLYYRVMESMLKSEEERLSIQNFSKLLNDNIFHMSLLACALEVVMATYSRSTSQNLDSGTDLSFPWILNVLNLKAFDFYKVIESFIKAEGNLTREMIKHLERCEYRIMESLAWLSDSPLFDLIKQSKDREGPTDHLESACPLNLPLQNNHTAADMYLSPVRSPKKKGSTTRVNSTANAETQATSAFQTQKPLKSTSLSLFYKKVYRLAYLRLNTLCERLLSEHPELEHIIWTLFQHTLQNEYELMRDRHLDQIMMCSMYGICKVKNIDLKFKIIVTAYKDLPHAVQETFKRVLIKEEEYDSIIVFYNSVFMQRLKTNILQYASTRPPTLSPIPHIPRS

Rb^P S474R = target: T5, Rb^P S474R (human, UniProt P06400 380-788, S474R)
T5 sequence: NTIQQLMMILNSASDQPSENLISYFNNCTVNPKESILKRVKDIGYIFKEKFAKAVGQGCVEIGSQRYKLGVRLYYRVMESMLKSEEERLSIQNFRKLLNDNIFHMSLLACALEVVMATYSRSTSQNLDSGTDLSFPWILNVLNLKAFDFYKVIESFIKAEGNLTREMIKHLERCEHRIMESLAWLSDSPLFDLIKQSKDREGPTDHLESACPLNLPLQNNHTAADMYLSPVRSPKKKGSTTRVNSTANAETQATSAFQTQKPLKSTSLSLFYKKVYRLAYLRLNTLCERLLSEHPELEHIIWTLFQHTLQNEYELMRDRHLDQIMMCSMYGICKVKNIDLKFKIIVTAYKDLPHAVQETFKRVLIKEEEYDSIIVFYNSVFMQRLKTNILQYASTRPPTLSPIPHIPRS

B1: TMR-E7^LxCxE (LxCxE peptide of the E7 oncoprotein from HPV, TMR-labeled) (peptide)
peptide: DLYCYEQLN
modifications: not fully specified; TMR fluorescent label (TMR-E7^LxCxE)
In the case of B1, the Kd (Rb^P I703F) is reported as 53 nM, the binding result (Rb^P R656Q) is reported as “binds” and the binding result (Rb^P R741C) is reported as “binds”. B1: binds (Rb^P H555Y); binds (Rb^P S474R).
